Target: T1, phosphorylated ArnB (ArnB~P), phosphorylated by the kinase ArnC (Sulfolobus acidocaldarius, UniProt Q4J9H3 2-380, phosphothreonine at T353, T363 and T375 (almost complete within the first 5 min with ArnC); phosphothreonine at T322 and T335 only after 15 min)
T1 construct: ArnB of Sulfolobus acidocaldarius, Saci_1211; also called tagged ArnB; source: E. coli BL21(DE3) Rosetta; phosphorylated by ArnC in the mixed lysate (ATP, MnCl2, 55 °C, 5-60 min); in lysate for the pull-downs; purified (Ni-NTA, SEC) for HDX-MS; not shown: His6, C-terminal, kept
T1 sequence: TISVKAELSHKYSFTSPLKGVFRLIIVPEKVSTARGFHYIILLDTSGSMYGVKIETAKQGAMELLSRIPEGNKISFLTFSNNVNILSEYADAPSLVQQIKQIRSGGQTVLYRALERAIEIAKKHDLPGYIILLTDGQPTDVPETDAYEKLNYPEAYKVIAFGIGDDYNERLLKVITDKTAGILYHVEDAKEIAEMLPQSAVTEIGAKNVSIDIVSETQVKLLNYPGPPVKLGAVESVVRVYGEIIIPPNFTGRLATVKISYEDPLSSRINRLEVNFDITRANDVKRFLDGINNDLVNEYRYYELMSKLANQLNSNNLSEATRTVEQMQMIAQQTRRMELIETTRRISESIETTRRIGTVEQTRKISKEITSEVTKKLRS
Assay: HDX-MS; ArnA, ArnB, ArnB~P and ArnA/ArnB~P (isolated by Ni-NTA via the His6 tag of ArnB, then SEC); 50 μM stocks in 20 mM Tris-Cl pH 8.0, 150 mM NaCl; 25 °C; 10-10,000 s
Details: both partners purified

B1: ArnA (Saci_1210) (natural protein, Sulfolobus acidocaldarius)
chain: TWKCNLCGYENDDDALFCIKCGAQKSSEAQQLPQQQPSEPQAQGVVTQQQVVTNPPVQAQVATPQQPAQQPVLPQPEPAQPQPVSSTPAPQQASQPTNRYYIYFIQTPNENLVNKKVLLNFDLFPSVSMGRSPENIVIVPDSEVSRKHAVIYLDNSELYIEDLNSTNGTYVYDGKQFTPIKGKQKIEPNSIIKLGNQTIVRILKE
notes: ArnA of Sulfolobus acidocaldarius, Saci_1210; N-terminal zinc-finger (ZnF) domain, disordered linker (S28-N99) and C-terminal FHA domain; In the crystal (PDB 8S05) only the ZnF domain (P16-K42) is defined by density; also called StrepII-tagged ArnA; source: E. coli BL21(DE3) Rosetta; purified (heat treatment, Ni-NTA, SEC) for crystals, SAXS and HDX-MS; co-expressed with His6-ArnB, in lysate, for …
  binding result: binds
